Assay [1] addresses T1, p97 (valosin-containing protein) (rat, UniProt P46462 1-806). In words: pull-down.
The target in a further assay is T2, His-p47(171–270) (UniProt O35987 171-270).
T2 sequence (looked up): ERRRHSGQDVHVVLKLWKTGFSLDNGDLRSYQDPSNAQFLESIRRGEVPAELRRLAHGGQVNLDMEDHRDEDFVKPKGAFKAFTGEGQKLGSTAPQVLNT
Put plainly: pull-down.

Assay [2] concerns the target T1, p97 (valosin-containing protein). In words: co-IP.

The source of these data is article PMC2173386 (The Journal of Cell Biology, 2002).

B1: GST-tagged p47(171–270) (domain or fragment, UniProt O35987 171-270, looked up)
chain: ERRRHSGQDVHVVLKLWKTGFSLDNGDLRSYQDPSNAQFLESIRRGEVPAELRRLAHGGQVNLDMEDHRDEDFVKPKGAFKAFTGEGQKLGSTAPQVLNT
Consider B1, for which, in assay [1], the binding result was “binds”.

B2: GST-tagged p47(271–370) (domain or fragment, UniProt O35987 271-370, looked up)
chain: SSPAQQAENEAKASSSILINEAEPTTNIQIRLADGGRLVQKFNHSHRISDIRLFIVDARPAMAATSFVLMTTFPNKELADENQTLKEANLLNAVIVQRLT
Turning to B2, the binding result in assay [1] was “binds”.

B3: GST-tagged p97(1–74) (domain or fragment, rat, UniProt P46462 1-74, looked up)
chain: MASGADSKGDDLSTAILKQKNRPNRLIVDEAINEDNSVVSLSQPKMDELQLFRGDTVLLKGKKRREAVCIVLSD
On to B3, for which, in the assay with His-p47(171–270), the binding result is “binds”.

B4: His-tagged VCIP135(744–1221) (domain or fragment, rat, UniProt Q8CF97 744-1221, looked up)
chain: TVSPSTIRDGPSSAPATPTKAPYSPTTSKEKKIRITTNDGRQSMVTLKSSTTFFELQESIAREFNIPPYLQCIRYGFPPKELMPPQAGMEKEPVPLQHGDRITIEILKGKAEGGPSTAAHSAHTVRQEEIAVTGKLSSKELQEQADKEMYSLCLLATLMGEDVWSYAKGLPHMFQQGGVFYNIMKKTMGMADGKHCTFPHLPGKTFVYNASEDRLELCVDAAGHFPIGPDVEDLVKEAVSQVRAEATTRSRESSPSHGLLKLGSGGVVKKKSEQLHNVTAFQGKGHSLGTASSNPHMDPRARETLAVRKHNTGTDFSNSSIKTEPPVFTAASSNSELIRIAPGVVTMRDGRQIDPDVVEAQRKKLQEMVSSIQASMDKHLRDQSTEQTPSDLSQRKVEAVSSSVRPGNLQTGLPESFSLTGGTENLNTETTDSRVADVLGAAFATRSKAQKENSMEEPEEMDSQDAETTNTTEPMDHS
For the molecule B4, the binding result in assay [2] was “binds”.
